Experimental data from IntAct's records for PubMed 21903585.

B1: RAD51-associated protein 1 (Homo sapiens), Q96B01-2 (parent)
chain: MVRPVRHKKPVNYSQFDHSDSDDDFVSATVPLNKKSRTAPKELKQDKPKPNLNNLRKEEIPVQEKTPKKRMALDDKLYQRDLEVALALSVKELPTVTTNVQNSQDKSIEKHGSSKIETMNKSPHISNCSVASDYLDLDKITVEDDVGGVQGKRKAASKAAAQQRKILLEGSDGDSANDTEPDFAPGEDSEDDSDFCESEDNDEDFSMRKSKVKEIKKKEVKVKSPVEKKEKKSKSKCNALVTSVDSAPAAVKSESQSLPKKVSLSSDTTRKPLEIRSPSAESKKPKWVPPAASGGSRSSSSPLVVVSVKSPNQSLRLGLSRLARVKPLHPNATST
partner: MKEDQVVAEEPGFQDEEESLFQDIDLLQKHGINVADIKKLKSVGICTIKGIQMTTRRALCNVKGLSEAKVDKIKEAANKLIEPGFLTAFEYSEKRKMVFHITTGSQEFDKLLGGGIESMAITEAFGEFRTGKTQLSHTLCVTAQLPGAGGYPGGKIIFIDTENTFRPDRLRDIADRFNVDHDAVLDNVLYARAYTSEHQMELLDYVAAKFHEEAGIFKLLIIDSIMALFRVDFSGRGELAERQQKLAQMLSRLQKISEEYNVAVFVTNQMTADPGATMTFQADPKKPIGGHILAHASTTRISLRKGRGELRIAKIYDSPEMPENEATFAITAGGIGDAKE

Variants of: B1
Details: with dmc1_human DMC1, Q14565
For MVRPVRHKKPVNYSQFDHSDSDDDFVSATVPLNKKSRTAPKELKQDKPKPNLNNLRKEEIPVQEKTPKKRMALDDKLYQRDLEVALALSVKELPTVTTNVQNSQDKSIEKHGSSKIETMNKSPHISNCSVASDYLDLDKITVEDDVGGVQGKRKAASKAAAQQRKILLEGSDGDSANDTEPDFAPGEDSEDDSDFCESEDNDEDFSMRKSKVKEIKKKEVKVKSPVEKKEKKSKSKCNALVTSVDSAPAAVKSESQSLPKKVSLSSDTTRKPLEIRSPSAESKKPKAVPPAASGGSRSSSSPLVVVSVKSPNQSLRLGLSRLARVKPLHPNATST [W287A], the “effect of a mutation on the interaction” value was “disrupting interaction”.
